Results published in patent US20240141045A1.

Molecular target: PD-1 Fc fusion protein (UniProt Q15116)
Test: SPR (Biacore 3000), recombinant PD-1 Fc immobilised on CM5 chip, fusion protein injected

PD-1 Fc fusion protein, sequence (Q15116 25-167 limits assumed): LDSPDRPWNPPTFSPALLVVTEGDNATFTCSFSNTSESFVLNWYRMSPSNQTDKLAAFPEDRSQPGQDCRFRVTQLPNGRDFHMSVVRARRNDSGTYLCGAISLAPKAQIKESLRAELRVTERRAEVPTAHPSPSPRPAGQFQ

B1: Anti-PD1 (VH7-VL6) scFv-Fc-ADA2 (Fc fusion, part only; not given: scFv linker and Fc, not shown: a dimerising Fc or GST)
scFv (part 1 of 2), part: QVQLVQSGVEVKKPGASVKVSCKASGYTFTNYYMYWVRQAPGQGLEWMGGINPSNGGTNFNEKFKNRVTLTTDSSTTTAYMELKSLQFDDTAVYYCARRDYRFDMGFDYWGQGTTVTVSSEIVLTQSPATLSLSPGERATLSCRASKGVSTSGYSYLHWYQQKPGQAPRLLIYLASYLESGVPARFSGSGSGTDFTLTISSLEPEDFAVYYCQHSRDLPLTFGGGTKVEIK
scFv (part 2 of 2), part: GGGGSGGGGSIDETRAHLLLKEKMMRLGGRLVLNTKEELANERLMTLKIAEMKEAMRTLIFPPSMHFFQAKHLIERSQVFNILRMMPKGAALHLHDIGIVTMDWLVRNVTYRPHCHICFTPRGIMQFRFAHPTPRPSEKCSKWILLEDYRKRVQNVTEFDDSLLRNFTLVTQHPEVIYTNQNVVWSKFETIFFTISGLIHYAPVFRDYVFRSMQEFYEDNVLYMEIRARLLPVYELSGEHHDEEWSVKTYQEVAQKFVETHPEFIGIKIIYSDHRSKDVAVIAESIRMAMGLRIKFPTVVAGFDLVGHEDTGHSLHDYKEALMIPAKDGVKLPYFFHAGETDWQGTSIDRNILDALMLNTTRIGHGFALSKHPAVRTYSWKKDIPIEVCPISNQVLKLVSDLRNHPVATLMATGHPMVISSDDPAMFGAKGLSYDFYEVFMGIGGMKADLRTLKQLAMNSIKYSTLLESEKNTFMEIWKKRWDKFIADVATK
In the case of B1, the Kd is reported as 0.563 nM.
